The record followed here is article PMC12102759 (2025).

The labels stand for the following.
B1: PEX5 peptide 240-255 (Peroxisomal targeting signal 1 receptor), 16-mer library wild type / PEX14 Pex14 (PEX14 PEX14, residues 16-84) (parent complex)
chain 1: AEQWAAEFIQQQGTSD
chain 2: TPGSENVLPREPLIATAVKFLQNSRVRQSPLATRRAFLKKKGLTDEEIDMAFQQSGTAADEPSSLGPAT

Variants of B1 are the subject of this assay. Nature of the assay: proteomic peptide phage display deep mutational scan (ProP-PD DMS): M13 P8 16-mer library selected against immobilised GST-tagged bait for four days (rounds), NGS of the eluted pools per day and pseudo-replica; bait immobilised on MaxiSorp plates (10 µg), library pre-cleared on GST, 2 h binding at 4 °C, five washes; one round per day, days 1-4; value from days 2 and 3.
Turning to chain 1 Q12S, the screen value is 0.00474 average fractional NGS count over selection days 2 and 3 (reads of this peptide / all reads for the bait, averaged over ….
In the case of chain 1 Q12L, the screen value was 0.00232 average fractional NGS count over selection days 2 and 3 (reads of this peptide / all reads for the bait, averaged over ….
In the case of chain 1 Q12D it was 0.00045 average fractional NGS count over selection days 2 and 3 (reads of this peptide / all reads for the bait, averaged over …; in that of chain 1 Q12Y, 0.00103 average fractional NGS count over selection days 2 and 3 (reads of this peptide / all reads for the bait, averaged over …; in that of chain 1 A5W, 0.000742 average fractional NGS count over selection days 2 and 3 (reads of this peptide / all reads for the bait, averaged over ….
Next, chain 1 A5R: 0.00499 average fractional NGS count over selection days 2 and 3 (reads of this peptide / all reads for the bait, averaged over …; chain 1 A5L: 0.00177 average fractional NGS count over selection days 2 and 3 (reads of this peptide / all reads for the bait, averaged over …; chain 1 A5H: 0.0461 average fractional NGS count over selection days 2 and 3 (reads of this peptide / all reads for the bait, averaged over ….
In the case of chain 1 A5N it was 0.00753 average fractional NGS count over selection days 2 and 3 (reads of this peptide / all reads for the bait, averaged over …; in that of chain 1 A5E, 0.0005 average fractional NGS count over selection days 2 and 3 (reads of this peptide / all reads for the bait, averaged over …; in that of chain 1 I9W, 0.00339 average fractional NGS count over selection days 2 and 3 (reads of this peptide / all reads for the bait, averaged over ….
As for chain 1 I9D, the screen value was 0.000867 average fractional NGS count over selection days 2 and 3 (reads of this peptide / all reads for the bait, averaged over ….
In the case of chain 1 I9R, the screen value was 0.00363 average fractional NGS count over selection days 2 and 3 (reads of this peptide / all reads for the bait, averaged over ….
In the case of chain 1 I9G it was 0.000546 average fractional NGS count over selection days 2 and 3 (reads of this peptide / all reads for the bait, averaged over ….
Regarding chain 1 I9T, the screen value was 0.000404 average fractional NGS count over selection days 2 and 3 (reads of this peptide / all reads for the bait, averaged over ….
Turning to chain 1 I9H, the screen value is 0.0279 average fractional NGS count over selection days 2 and 3 (reads of this peptide / all reads for the bait, averaged over ….
Next, chain 1 I9F: 0.00108 average fractional NGS count over selection days 2 and 3 (reads of this peptide / all reads for the bait, averaged over …; chain 1 Q3L: 0.00235 average fractional NGS count over selection days 2 and 3 (reads of this peptide / all reads for the bait, averaged over ….
With chain 1 Q3M, the screen value was 0.002 average fractional NGS count over selection days 2 and 3 (reads of this peptide / all reads for the bait, averaged over ….
Next, chain 1 Q3D: 0.000539 average fractional NGS count over selection days 2 and 3 (reads of this peptide / all reads for the bait, averaged over …; chain 1 Q3G: 0.000648 average fractional NGS count over selection days 2 and 3 (reads of this peptide / all reads for the bait, averaged over …; chain 1 T14E: 0.000967 average fractional NGS count over selection days 2 and 3 (reads of this peptide / all reads for the bait, averaged over ….
For chain 1 T14I, the screen value was 0.00075 average fractional NGS count over selection days 2 and 3 (reads of this peptide / all reads for the bait, averaged over ….
In the case of chain 1 T14A it was 0.00163 average fractional NGS count over selection days 2 and 3 (reads of this peptide / all reads for the bait, averaged over ….
For the variant chain 1 T14W, the screen value is 0.000366 average fractional NGS count over selection days 2 and 3 (reads of this peptide / all reads for the bait, averaged over ….
For the variant chain 1 T14H, the screen value is 0.00166 average fractional NGS count over selection days 2 and 3 (reads of this peptide / all reads for the bait, averaged over ….
Next, chain 1 G13A: 0.00173 average fractional NGS count over selection days 2 and 3 (reads of this peptide / all reads for the bait, averaged over …; chain 1 G13S: 0.00151 average fractional NGS count over selection days 2 and 3 (reads of this peptide / all reads for the bait, averaged over …; chain 1 G13Q: 0.000525 average fractional NGS count over selection days 2 and 3 (reads of this peptide / all reads for the bait, averaged over ….
For chain 1 G13M, the screen value was 0.000519 average fractional NGS count over selection days 2 and 3 (reads of this peptide / all reads for the bait, averaged over ….
Consider chain 1 G13P, for which the screen value was 0.00036 average fractional NGS count over selection days 2 and 3 (reads of this peptide / all reads for the bait, averaged over ….
Turning to chain 1 G13Y, the screen value is 0.000307 average fractional NGS count over selection days 2 and 3 (reads of this peptide / all reads for the bait, averaged over ….
Next, chain 1 G13K: 0.000992 average fractional NGS count over selection days 2 and 3 (reads of this peptide / all reads for the bait, averaged over …; chain 1 G13T: 0.000744 average fractional NGS count over selection days 2 and 3 (reads of this peptide / all reads for the bait, averaged over ….
Turning to chain 1 F8W, the screen value is 0.00184 average fractional NGS count over selection days 2 and 3 (reads of this peptide / all reads for the bait, averaged over ….
For the variant chain 1 S15V, the screen value was 0.000997 average fractional NGS count over selection days 2 and 3 (reads of this peptide / all reads for the bait, averaged over ….
Next, chain 1 S15L: 0.00083 average fractional NGS count over selection days 2 and 3 (reads of this peptide / all reads for the bait, averaged over ….
Take chain 1 S15T: the screen value is 0.00362 average fractional NGS count over selection days 2 and 3 (reads of this peptide / all reads for the bait, averaged over ….
As to chain 1 S15R, the screen value is 0.00217 average fractional NGS count over selection days 2 and 3 (reads of this peptide / all reads for the bait, averaged over ….
Regarding chain 1 S15Y, the screen value was 0.000382 average fractional NGS count over selection days 2 and 3 (reads of this peptide / all reads for the bait, averaged over ….
Next, chain 1 Q11G: 0.00455 average fractional NGS count over selection days 2 and 3 (reads of this peptide / all reads for the bait, averaged over …; chain 1 Q11V: 0.0012 average fractional NGS count over selection days 2 and 3 (reads of this peptide / all reads for the bait, averaged over ….
In the case of chain 1 Q11L it was 0.0026 average fractional NGS count over selection days 2 and 3 (reads of this peptide / all reads for the bait, averaged over …; in that of chain 1 Q11W, 0.000954 average fractional NGS count over selection days 2 and 3 (reads of this peptide / all reads for the bait, averaged over …; in that of chain 1 Q11S, 0.000902 average fractional NGS count over selection days 2 and 3 (reads of this peptide / all reads for the bait, averaged over ….
As for chain 1 E7A, the screen value was 0.00276 average fractional NGS count over selection days 2 and 3 (reads of this peptide / all reads for the bait, averaged over ….
For chain 1 E7K, the screen value is 0.000488 average fractional NGS count over selection days 2 and 3 (reads of this peptide / all reads for the bait, averaged over ….
chain 1 E7W: the screen value is 0.00666 average fractional NGS count over selection days 2 and 3 (reads of this peptide / all reads for the bait, averaged over ….
For chain 1 E7Y, the screen value is 0.00419 average fractional NGS count over selection days 2 and 3 (reads of this peptide / all reads for the bait, averaged over ….
For chain 1 E7G, the screen value is 0.00104 average fractional NGS count over selection days 2 and 3 (reads of this peptide / all reads for the bait, averaged over ….
Next, chain 1 E7I: 0.000858 average fractional NGS count over selection days 2 and 3 (reads of this peptide / all reads for the bait, averaged over …; chain 1 A1R: 0.000918 average fractional NGS count over selection days 2 and 3 (reads of this peptide / all reads for the bait, averaged over …; chain 1 A1H: 0.0701 average fractional NGS count over selection days 2 and 3 (reads of this peptide / all reads for the bait, averaged over ….
Next, chain 1 A1P: 0.000938 average fractional NGS count over selection days 2 and 3 (reads of this peptide / all reads for the bait, averaged over ….
As for chain 1 A1Q, the screen value is 0.00549 average fractional NGS count over selection days 2 and 3 (reads of this peptide / all reads for the bait, averaged over ….
Take chain 1 Q10E: the screen value was 0.0048 average fractional NGS count over selection days 2 and 3 (reads of this peptide / all reads for the bait, averaged over ….
chain 1 Q10L: the screen value is 0.00121 average fractional NGS count over selection days 2 and 3 (reads of this peptide / all reads for the bait, averaged over ….
Consider chain 1 Q10T, for which the screen value is 0.00279 average fractional NGS count over selection days 2 and 3 (reads of this peptide / all reads for the bait, averaged over ….
With chain 1 Q10M, the screen value was 0.00324 average fractional NGS count over selection days 2 and 3 (reads of this peptide / all reads for the bait, averaged over ….
Regarding chain 1 Q10H, the screen value was 0.00189 average fractional NGS count over selection days 2 and 3 (reads of this peptide / all reads for the bait, averaged over ….
In the case of chain 1 Q10D it was 0.000871 average fractional NGS count over selection days 2 and 3 (reads of this peptide / all reads for the bait, averaged over ….
Take chain 1 Q10Y: the screen value was 0.00306 average fractional NGS count over selection days 2 and 3 (reads of this peptide / all reads for the bait, averaged over ….
On to chain 1 Q10N, for which the screen value was 0.00173 average fractional NGS count over selection days 2 and 3 (reads of this peptide / all reads for the bait, averaged over ….
As for chain 1 Q10W, the screen value was 0.0034 average fractional NGS count over selection days 2 and 3 (reads of this peptide / all reads for the bait, averaged over ….
Next, chain 1 Q10F: 0.00183 average fractional NGS count over selection days 2 and 3 (reads of this peptide / all reads for the bait, averaged over …; chain 1 Q10I: 0.00252 average fractional NGS count over selection days 2 and 3 (reads of this peptide / all reads for the bait, averaged over …; chain 1 E2D: 0.00048 average fractional NGS count over selection days 2 and 3 (reads of this peptide / all reads for the bait, averaged over ….
Turning to chain 1 E2H, the screen value is 0.00822 average fractional NGS count over selection days 2 and 3 (reads of this peptide / all reads for the bait, averaged over ….
Regarding chain 1 E2M, the screen value is 0.00435 average fractional NGS count over selection days 2 and 3 (reads of this peptide / all reads for the bait, averaged over ….
In the case of chain 1 E2Y, the screen value is 0.00378 average fractional NGS count over selection days 2 and 3 (reads of this peptide / all reads for the bait, averaged over ….
In the case of chain 1 A6G, the screen value is 0.00471 average fractional NGS count over selection days 2 and 3 (reads of this peptide / all reads for the bait, averaged over ….
chain 1 A6Y: the screen value was 0.00438 average fractional NGS count over selection days 2 and 3 (reads of this peptide / all reads for the bait, averaged over ….
Take chain 1 A6I: the screen value is 0.00623 average fractional NGS count over selection days 2 and 3 (reads of this peptide / all reads for the bait, averaged over ….
Consider chain 1 A6D, for which the screen value was 0.0111 average fractional NGS count over selection days 2 and 3 (reads of this peptide / all reads for the bait, averaged over ….
In the case of chain 1 A6V it was 0.00173 average fractional NGS count over selection days 2 and 3 (reads of this peptide / all reads for the bait, averaged over ….
